Molecular target: the molecule itself
Assay: crystal structure

B1: minimal functional chicken ASIC1 construct (cASIC1mfc) (domain or fragment, UniProt Q1XA76 2-466, looked up)
chain: MDLKVDEEEVDSGQPVSIQAFASSSTLHGISHIFSYERLSLKRVVWALCFMGSLALLALVCTNRIQYYFLYPHVTKLDEVAATRLTFPAVTFCNLNEFRFSRVTKNDLYHAGELLALLNNRYEIPDTQTADEKQLEILQDKANFRNFKPKPFNMLEFYDRAGHDIREMLLSCFFRGEQCSPEDFKVVFTRYGKCYTFNAGQDGKPRLITMKGGTGNGLEIMLDIQQDEYLPVWGETDETSFEAGIKVQIHSQDEPPLIDQLGFGVAPGFQTFVSCQEQRLIYLPPPWGDCKATTGDSEFYDTYSITACRIDCETRYLVENCNCRMVHMPGDAPYCTPEQYKECADPALDFLVEKDNEYCVCEMPCNVTRYGKELSMVKIPSKASAKYLAKKYNKSEQYIGENILVLDIFFEALNYETIEQKKAYEVAGLLGDIGGQMGLFIGASILTVLELFDYAYEVIKHRLCR
  stoichiometry N: 3
